According to article PMC5711770, “Acetylome of Acinetobacter baumannii SK17 Reveals a Highly-Conserved Modification of Histone-Like Protein HU” (Frontiers in Molecular Biosciences, 2017):

B1: wild-type HU with a C-terminal His-tag (Acinetobacter baumannii SK17 histone-like DNA-binding protein HU) (natural protein, UniProt A0ABX6CHP0 1-90, looked up)
chain: MNKSELIDAIAEKGGVSKTDAGKALDATIASITEALKKGDTVTLVGFGTFSVKERAARTGRNPKTGEELQIKATKVPSFKAGKGLKDSVA
notes: cloned whole between NdeI and XhoI of pET-21a(+); also called wt HU; wt; source: E. coli BL21(DE3), purified (Ni-NTA, cation-exchange chromatography); not shown: His6, C-terminal, kept
B2: HU(K13ac), HU acetylated at Lys13, with a C-terminal His-tag (natural protein, Acinetobacter baumannii SK17, UniProt A0ABX6CHP0 1-90, looked up)
chain: B1 chain
modifications: acetyllysine at residue 13
notes: the codon of Lys13 replaced by an amber codon for site-specific incorporation of acetyllysine; also called Lys13-acetylated HU; not shown: His6, C-terminal, kept
B3: biotin-labeled dsDNA (BLI) (dsDNA)
DNA 1: ATTAATATTTTCTTAAACTAATTTAAAAT
DNA 2: ATTTTAAATTAGTTTAAGAAAATATTAAT

Columns and labels:
[1] = target: the molecule itself; assay: SEC; analytical size-exclusion chromatography, Superdex 75 10/300 GL, PBS, 0.5 ml/min; size judged against ovalbumin (44 kDa) and myoglobin (17 kDa) markers
[2] = target: HU (wt*, without His-tag) (Acinetobacter baumannii SK17, UniProt A0ABX6CHP0); assay: BLI; BLI: 30 mM Tris pH 7.5, 100 mM NaCl, 0.02% Tween20, 0.5 mg/ml BSA, 25°C; EMSA: same buffer, 37°C 1 h, 250 ng DNA in 10 µl, 1% agarose in TAE; AFM: 10 mM HEPES pH 7.5, 4 mM MgCl2; settings: protein: recombinant; tags: none; N-terminal GA remains after TEV cleavage; chain copies: 2; label: 5'-biotin on strand 1; (only one strand printed)
[3] = target: HU (wt, C-terminal His-tag) (Acinetobacter baumannii SK17, UniProt A0ABX6CHP0); assay: as above; settings: protein: recombinant; chain copies: 2; label: 5'-biotin on strand 1; (only one strand printed)
[4] = target: HU(K13ac) (C-terminal His-tag) (Acinetobacter baumannii SK17, UniProt A0ABX6CHP0, K13ac); assay: BLI; kon and koff several-fold lower than wt; BLI: 30 mM Tris pH 7.5, 100 mM NaCl, 0.02% Tween20, 0.5 mg/ml BSA, 25°C; EMSA: same buffer, 37°C 1 h, 250 ng DNA in 10 µl, 1% agarose in TAE; AFM: 10 mM HEPES pH 7.5, 4 mM MgCl2; settings: protein: recombinant; chain copies: 2; label: 5'-biotin on strand 1; (only one strand printed)

Binder	stoichiometry N [1]	Kd [2] [nM]	Kd [3] [nM]	Kd [4] [nM]
B1	2	–	–	–
B2	2	–	–	–
B3	–	276 ± 143	349 ± 352	184 ± 9.3
